The record followed here is paper doi:10.1101/2024.09.22.614354 (bioRxiv, 2024).

Experiment in all cases: fluorescence polarisation
(Polarisation of emitted light reports the rotation of a fluorescent probe.)

For one assay, the target named is T1, Rb^P I703F (human, UniProt P06400 380-788, I703F).
T1 sequence: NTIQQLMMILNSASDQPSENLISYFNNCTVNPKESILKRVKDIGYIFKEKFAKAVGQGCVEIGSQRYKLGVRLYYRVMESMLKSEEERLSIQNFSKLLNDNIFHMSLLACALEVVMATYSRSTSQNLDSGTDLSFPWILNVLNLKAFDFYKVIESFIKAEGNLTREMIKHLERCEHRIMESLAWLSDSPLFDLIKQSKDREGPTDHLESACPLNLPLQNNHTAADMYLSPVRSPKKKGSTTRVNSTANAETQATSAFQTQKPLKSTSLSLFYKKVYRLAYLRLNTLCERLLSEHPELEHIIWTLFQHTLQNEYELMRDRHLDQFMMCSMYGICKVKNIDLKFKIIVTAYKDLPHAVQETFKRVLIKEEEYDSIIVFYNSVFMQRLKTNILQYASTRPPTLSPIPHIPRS

In the next assay the target is T2, Rb^P R741S (human, UniProt P06400 380-788, R741S).
T2 sequence: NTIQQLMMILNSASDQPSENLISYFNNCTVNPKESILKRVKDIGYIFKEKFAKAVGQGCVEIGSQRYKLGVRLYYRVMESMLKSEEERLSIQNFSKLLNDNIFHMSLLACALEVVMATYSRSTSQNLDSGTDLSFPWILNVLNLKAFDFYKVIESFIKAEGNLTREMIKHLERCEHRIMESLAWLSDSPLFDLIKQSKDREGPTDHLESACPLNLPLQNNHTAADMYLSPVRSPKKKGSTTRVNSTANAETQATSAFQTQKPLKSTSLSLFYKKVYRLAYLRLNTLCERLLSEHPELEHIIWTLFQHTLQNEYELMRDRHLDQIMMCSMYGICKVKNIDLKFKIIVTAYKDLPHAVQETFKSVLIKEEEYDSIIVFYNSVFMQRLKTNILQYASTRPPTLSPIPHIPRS

Another assay concerns the target T3, Rb^P H555Y (human, UniProt P06400 380-788, H555Y).
T3 sequence: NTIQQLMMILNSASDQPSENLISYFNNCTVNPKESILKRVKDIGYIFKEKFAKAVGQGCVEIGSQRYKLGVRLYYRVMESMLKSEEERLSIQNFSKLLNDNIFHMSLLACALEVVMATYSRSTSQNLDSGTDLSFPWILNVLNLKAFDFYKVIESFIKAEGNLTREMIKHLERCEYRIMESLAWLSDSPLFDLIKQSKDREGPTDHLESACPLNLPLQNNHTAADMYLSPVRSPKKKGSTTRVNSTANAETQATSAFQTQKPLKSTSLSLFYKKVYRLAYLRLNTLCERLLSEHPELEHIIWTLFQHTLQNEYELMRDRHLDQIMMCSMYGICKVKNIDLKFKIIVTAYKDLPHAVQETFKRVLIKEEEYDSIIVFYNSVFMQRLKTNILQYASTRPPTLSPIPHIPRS

Another assay deals with T4, Rb^P S474R (human, UniProt P06400 380-788, S474R).
T4 sequence: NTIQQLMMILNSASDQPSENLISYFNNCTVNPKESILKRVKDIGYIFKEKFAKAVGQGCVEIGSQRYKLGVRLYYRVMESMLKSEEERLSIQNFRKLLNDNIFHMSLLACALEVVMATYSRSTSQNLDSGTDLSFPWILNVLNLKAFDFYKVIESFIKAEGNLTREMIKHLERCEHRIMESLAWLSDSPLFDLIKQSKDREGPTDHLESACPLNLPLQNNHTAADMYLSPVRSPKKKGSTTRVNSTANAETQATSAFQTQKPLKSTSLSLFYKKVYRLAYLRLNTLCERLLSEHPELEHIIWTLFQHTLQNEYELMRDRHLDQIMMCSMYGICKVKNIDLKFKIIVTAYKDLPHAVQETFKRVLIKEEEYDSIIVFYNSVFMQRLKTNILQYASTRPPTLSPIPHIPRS

In the next assay the target is T5, Rb^P M695I (human, UniProt P06400 380-788, M695I).
T5 sequence: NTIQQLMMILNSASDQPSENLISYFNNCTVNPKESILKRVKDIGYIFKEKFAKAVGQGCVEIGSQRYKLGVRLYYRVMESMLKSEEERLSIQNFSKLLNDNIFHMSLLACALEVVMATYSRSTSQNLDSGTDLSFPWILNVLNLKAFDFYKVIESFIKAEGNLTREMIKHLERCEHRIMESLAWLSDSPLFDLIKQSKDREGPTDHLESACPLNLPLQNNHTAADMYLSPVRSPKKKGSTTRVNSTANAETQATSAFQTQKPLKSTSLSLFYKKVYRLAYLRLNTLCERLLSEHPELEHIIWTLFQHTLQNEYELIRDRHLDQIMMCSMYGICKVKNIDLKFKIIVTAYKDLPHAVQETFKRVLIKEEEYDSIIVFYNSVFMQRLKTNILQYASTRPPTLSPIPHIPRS

Molecule DLYCYEQLN (not fully specified; TMR fluorescent label (TMR-E7^LxCxE)) [TMR-E7^LxCxE (LxCxE peptide of the E7 oncoprotein from HPV, TMR-labeled)] displayed a dissociation constant Kd with Rb^P I703F of 16 nM. Also, the binding result in the assay with Rb^P R741S, with Rb^P H555Y, with Rb^P S474R and with Rb^P M695I was “binds” in each case.

Usually Kd stands for a measure of binding affinity in units of concentration. Read a low Kd as a tighter complex.
